B1: Fc-containing molecule with triple mutation K409D, K392D, K370D (other)
chain: EPKSCDKTHTCPPCPAPELLGGPSVFLFPPKPKDTLMISRTPEVTCVVVDVSHEDPEVKFNWYVDGVEVHNAKTKPREEQYNSTYRVVSVLTVLHQDWLNGKEYKCKVSNKALPAPIEKTISKAKGQPREPQVYTLPPSREEMTKNQVSLTCLVDGFYPSDIAVEWESNGQPENNYDTTPPVLDSDGSFFLYSDLTVDKSRWQQGNVFSCSVMHEALHNHYTQKSLSLSPGK
B2: Fc-containing molecule with triple mutation K409D, K392D, K439D (other)
chain: EPKSCDKTHTCPPCPAPELLGGPSVFLFPPKPKDTLMISRTPEVTCVVVDVSHEDPEVKFNWYVDGVEVHNAKTKPREEQYNSTYRVVSVLTVLHQDWLNGKEYKCKVSNKALPAPIEKTISKAKGQPREPQVYTLPPSREEMTKNQVSLTCLVKGFYPSDIAVEWESNGQPENNYDTTPPVLDSDGSFFLYSDLTVDKSRWQQGNVFSCSVMHEALHNHYTQDSLSLSPGK
B3: Fc-containing molecule with triple mutation D399K, E356K, E357K (Fc fusion)
chain: HMAEVQLQQSGAELVKPGSSVKISCKASGYTFANNFMHWIKQQPGNGLEWIGWIYPGDGDTEYNQKFSGKATLTADKSSSTAYMQLNSLTSEDSAVYFCIRLTEGTTYWGQGVMVTVSSGGGGSGGGGSGGGGSQFVLTQPNSVSTNLGSTVKLSCKRSTGNIGSNYVNWYQQHEGRSPTTMIYRDDKRPDGVPDRFSGSIDGSSNSALLTINNVQTEDEADYFCQSYSRGVSPVFGGGTKLTVLAAAEPKSCDKTHTCPPCPAPELLGGPSVFLFPPKPKDTLMISRTPEVTCVVVDVSHEDPEVKFNWYVDGVEVHNAKTKPREEQYNSTYRVVSVLTVLHQDWLNGKEYKCKVSNKALPAPIEKTISKAKGQPREPQVYTLPPSRKKMTKNQVSLTCLVKGFYPSDIAVEWESNGQPENNYKTTPPVLKSDGSFFLYSKLTVDKSRWQQGNVFSCSVMHEALHNHYTQKSLSLSPGK

Target: the molecule itself
Test: homodimer formation; expressed alone in 293-6E, western blot with goat anti-human Fc HRP
Description: FIG. 11. […] Fc molecules were detected using goat-anti-human Fc HRP conjugated at 1:10,000.
DNA was transfected into human embryonic kidney cell line 293-6E using Lipofectamine™ 2000 reagent (Invitrogen). The cell culture supernatant was harvested 3-4 days after transfection and analyzed on SDS-PAGE Gels under non-reduced condition. The gel was then transferred to nitrocellulose membrane and subject to western analysis using peroxidase-conjugated goat anti-human IgG antibody (Jackson ImmunoResearch Laboratories) and results are shown in FIG. 10.
Mutants were made and cells transfected as described in Example 1. When the constructs were co-transfected, a 1:1 ratio of plasmids were used. Heterodimer and homodimers were detected by Western blot using goat-anti-human Fc HRP conjugated antibody. […] Similarly, Fc-containing molecules having triple mutations wherein negative-charged residues were changed to positive-charged residues (D399K,E356K,E357K) were unable to be detected when expressed alone. When co-expressed with an Fc-containing molecule having mutations of opposite charge polarity, however, heterodimers only were detected.

Binding result, no binding:
B1
B2
B3

Reference: US20100286374A1 (Amgen, published 2010)
